Results reported in patent publication EP4541814A1 (Cytiva BioProcess R&D AB, dated 2025).

Legend:
AAV9 viral particles [1] = target: T1, AAV9 viral particles (adeno-associated virus 9); assay: SPR (Biacore 8K+), fusion protein amine-coupled to CM5, AAV9 2E12 vp/ml; response normalized to vh118
AAV9 viral particles [2] = target: T1, AAV9 viral particles; assay: SPR (Biacore 8K+), fusion protein amine-coupled to CM5, AAV9 2E12 vp/ml, report point late binding

Binder	Normalized AAV9 binding capacity (%) (AAV9 viral particles [1])	Binding capacity AAV9 (2E12 vp/ml) (RU) (AAV9 viral particles [2])
vh374 (SEQ ID NO:144) fused to SEQ ID NO:160, Example 5 (VHH) chain (part 1 of 2): QVQLQQSGGGSVQAGGSLRLSCTSSGRTLSDFTMAWFRQRPGRAREFVAAISWSGAYTYYTDSVKGRFTISRDNAKNTVFLQMQSLKPEDTAIYYCAAGPTGLLSRKTTPADYQYWGQGTQVTVSS chain (part 2 of 2): not shown	102	
vh359 (SEQ ID NO:145) fused to SEQ ID NO:160, Example 5 (VHH) chain (part 1 of 2): QVQLVESGGGSVQAGGSLSLSCTISGRTLSDFTMAWFRQRPGKEREFVAAISWSGAYTYYTDSVKGRFTISRDNAKNTVYLQMQSLKPEDTAVYYCAAGPTGLLSRKTTPADYQYWGQGTQVTVSS chain (part 2 of 2): not shown	86.4	
Candidate 4A-1: vh342 fusion protein (SEQ ID NO:163) (VHH) VHH: QVQLQESGGGLVQPGGSLRLSCAASGRTLSDYTMGWFRQAPGKQREFVAAISWSGAYTKYTDSVKGRFTISRDNAKTTVYLQMNSLKPEDTAVYYCAAGPTGLLSKKATPADYDYWGQGTQVTVSS		9920
Candidate 4A-3: vh118 fusion protein (SEQ ID NO:162) (VHH) VHH: QVQLQQSGGGSVQAGGSLRLSCTISGRTLSDYTMGWFRQRPGKEREFVAAISWSGAYTKYADSVKGRFTISRDNAKNTVYLQMNSLKPEDTAVYYCAAGPTGLLSKKATPADYDYWGQGTQVTVSS		12400
Candidate 4A-2: vh343 fusion protein (SEQ ID NO:164) (VHH) VHH: EVQLVESGGGLVQAGGSLRLSCAASGRTLSDYTMGWFRQAPGKEREFVVAISWSGAYTKYADSVKGRFTISRDNAKNTMYLQMNSLKPEDTAVYYCAAGPTGLLSKKATPADYDYWGQGTQVTVSS		12400
